A short description of this data set: Peptide self-assembly / gelation conditions. It counts as physicochemical. As for the experimental part:
Peptide self-assembly was analyzed in i) a PBS solution (10 mM), ii) a PBS/mQ mixture (1:1 v:v, mQ water with a resistivity of […]) or iii) a NaCl aqueous solution (150 mM). The TFA salt of reference peptide SEQ NO. 23 (1 mg) was dissolved in 50 μl mQ water, followed by the addition of 50 μl PBS solution. This mixture was left to rest overnight, resulting in a 1% w/v hydrogel. The TFA salt of mixed α/β-peptides SEQ ID NO 1 and SEQ ID NO 2 (2 mg) was dissolved in mQ (100 μL) and PBS/mQ mixture (100 μL), respectively. […] The TFA salt of mixed α/β-peptide SEQ ID NO 3 (3 mg) was dissolved in PBS (100 μL) to probe gelation. All self-assembled gels were analyzed by circular dichroism (CD) and Fourier transform infrared (FT-IR) spectroscopy, as well as cryogenic transmission electron microscopy (Cryo-TEM).
(SEQ ID NO:22 (=10-mer)), 100 μl mQ water was added to 2 mg of TFA-salt of pure peptide, then vortexed and sonicated. As a result, a transparent self-supporting gel was formed immediately. A gelation condition of 2 w/v % in mQ water was found.
for H-Fβ^2hFEFQFK-NH2 (SEQ ID NO:19), 100 μl of PBS was added to 2 mg of TFA-salt of pure peptide, then vortexed and sonicated. After overnight resting, a self-supporting gel was formed. A gelation condition of 2 w/v % in PBS was determined.

Numbered stars: 1 amine (or outer) side, 2 acyl side, 3 side chain; on linkers, the order of the positions; unused ones are H or OH. Square brackets hold non-standard residues; d marks the D form. β3hCha = beta-3-homo-cyclohexylalanine, O=C(C[C@H](CC1CCCCC1)N[*:1])[*:2]; β3hF = N[C@H](CC(=O)O)Cc1ccccc1

Consider “H-Glu-β^3hPhe-Phe-Lys-β^3hPhe-Phe-NH2 (H-E[β3hF]FK[β3hF]F-NH2; SMILES NCCCC[C@H](NC(=O)[C@H](Cc1ccccc1)NC(=O)C[C@H](Cc1ccccc1)NC(=O)[C@@H](N)CCC(=O)O)C(=O)N[C@H](CC(=O)N[C@@H](Cc1ccccc1)C(N)=O)Cc1ccccc1) [SEQ ID NO 12]”, for which the “Gelation condition % (w/v)” value (in mQ/PBS 1:0.5) is 1.5% (mQ/PBS 1:0.5) % (w/v). In the case of “H-Phe-Gln-β^3hPhe-Phe-Gln-β^3hPhe-Phe-Lys-OH (H-FQ[β3hF]FQ[β3hF]FK-OH; SMILES NCCCC[C@H](NC(=O)[C@H](Cc1ccccc1)NC(=O)C[C@H](Cc1ccccc1)NC(=O)[C@H](CCC(N)=O)NC(=O)[C@H](Cc1ccccc1)NC(=O)C[C@H](Cc1ccccc1)NC(=O)[C@H](CCC(N)=O)NC(=O)[C@@H](N)Cc1ccccc1)C(=O)O) [SEQ ID NO 5]”, the “Gelation condition % (w/v)” value (in mQ) was 2% (mQ) % (w/v).

Take “H-Phe-Gln-β^3hPhe-Phe-Lys-NH2 (H-FQ[β3hF]FK-NH2; SMILES NCCCC[C@H](NC(=O)[C@H](Cc1ccccc1)NC(=O)C[C@H](Cc1ccccc1)NC(=O)[C@H](CCC(N)=O)NC(=O)[C@@H](N)Cc1ccccc1)C(N)=O) [SEQ ID NO 9]”: the “Gelation condition % (w/v)” value (in PBS) is reported as 3% (PBS) % (w/v). For “H-Phe-Glu-Phe-Gln-Phe-Lys-β^3hPhe-Phe-NH2 (H-FEFQFK[β3hF]F-NH2; SMILES NCCCC[C@H](NC(=O)[C@H](Cc1ccccc1)NC(=O)[C@H](CCC(N)=O)NC(=O)[C@H](Cc1ccccc1)NC(=O)[C@H](CCC(=O)O)NC(=O)[C@@H](N)Cc1ccccc1)C(=O)N[C@H](CC(=O)N[C@@H](Cc1ccccc1)C(N)=O)Cc1ccccc1) [SEQ ID NO 21]”, the “Gelation condition % (w/v)” value (in mQ/PBS 1:1) is reported as 1.5% (mQ/PBS 1:1) % (w/v).

Take “H-Phe-Glu-Phe-Gln-β^3hPhe-Phe-Lys-NH2 (H-FEFQ[β3hF]FK-NH2; SMILES NCCCC[C@H](NC(=O)[C@H](Cc1ccccc1)NC(=O)C[C@H](Cc1ccccc1)NC(=O)[C@H](CCC(N)=O)NC(=O)[C@H](Cc1ccccc1)NC(=O)[C@H](CCC(=O)O)NC(=O)[C@@H](N)Cc1ccccc1)C(N)=O) [SEQ ID NO 18]”: the “Gelation condition % (w/v)” value (in PBS) was 2% (PBS) % (w/v). On the same count and under the same terms, then “H-Phe-Glu-β^3Phe-Tyr-Gln-β^3hPhe-Tyr-Lys-OH (H-FE[β3hF]YQ[β3hF]YK-OH) [SEQ ID NO 4]”, with 2% (PBS) % (w/v). For “H-Phe-Glu-β^3hCha-Phe-Gln-β^3hCha-Phe-Lys-OH (H-FE[β3hCha]FQ[β3hCha]FK-OH) [SEQ ID NO 8]”, under “in mQ”, the “Gelation condition % (w/v)” value is 3% (mQ) % (w/v).

Turning to “H-Phe-Glu-β^3hPhe-Phe-Gln-Phe-Gln-β^3hPhe-Phe-Lys-NH2 (H-FE[β3hF]FQFQ[β3hF]FK-NH2; SMILES NCCCC[C@H](NC(=O)[C@H](Cc1ccccc1)NC(=O)C[C@H](Cc1ccccc1)NC(=O)[C@H](CCC(N)=O)NC(=O)[C@H](Cc1ccccc1)NC(=O)[C@H](CCC(N)=O)NC(=O)[C@H](Cc1ccccc1)NC(=O)C[C@H](Cc1ccccc1)NC(=O)[C@H](CCC(=O)O)NC(=O)[C@@H](N)Cc1ccccc1)C(N)=O) [SEQ ID NO 22]”, the “time of gelation (self-supporting gel formed)” value (TFA salt, at its own gelation condition) is listed as “immediately”. Further, the gelation condition (TFA salt, in mQ water) is recorded as 2 w/v %. Besides, the “Gelation condition % (w/v)” value (in mQ) is 2% (mQ) % (w/v). Take “H-Phe-Glu-β^3hPhe-Phe-Gln-Phe-Lys-NH2 (H-FE[β3hF]FQFK-NH2; SMILES NCCCC[C@H](NC(=O)[C@H](Cc1ccccc1)NC(=O)[C@H](CCC(N)=O)NC(=O)[C@H](Cc1ccccc1)NC(=O)C[C@H](Cc1ccccc1)NC(=O)[C@H](CCC(=O)O)NC(=O)[C@@H](N)Cc1ccccc1)C(N)=O) [SEQ ID NO 13]”: where the note is “in PBS”, the “Gelation condition % (w/v)” value is reported as 2% (PBS) % (w/v). Consider “H-Phe-Glu-β^3hPhe-Phe-Gln-Phe-Lys-Phe-NH2 (H-FE[β3hF]FQFKF-NH2; SMILES NCCCC[C@H](NC(=O)[C@H](Cc1ccccc1)NC(=O)[C@H](CCC(N)=O)NC(=O)[C@H](Cc1ccccc1)NC(=O)C[C@H](Cc1ccccc1)NC(=O)[C@H](CCC(=O)O)NC(=O)[C@@H](N)Cc1ccccc1)C(=O)N[C@@H](Cc1ccccc1)C(N)=O) [SEQ ID NO 20]”, for which the “Gelation condition % (w/v)” value (in mQ/PBS 1:1) is 1.5% (mQ/PBS 1:1) % (w/v).

For the origin of these results see US10526371B2, “Hydrogel-forming peptides” (Universiteit Gent, priority 2015, dated 2020).
